According to patent publication US20200246383A1 (REGENTS OF THE UNIVERSITY OF MINNESOTA, published 2020):

Assays:
[1] = molecular target: T1, recombinant human dipeptidyl peptidase IV (hDPP-IV), biotinylated (human, UniProt P27487 29-766, limits assumed, biotinylated); experiment: ELISA: B12 IgG 0.1 to 500 nM on biotinylated hDPP-IV captured on streptavidin-coated wells; detection with peroxidase anti-human IgG mAb; OD 450nm
T1 construct: also called human DPP-IV
Experimental: FIG. 2A-FIG. 2E show in vitro characterization of the anti-FAP monoclonal antibody B12 immunoglobulin G (IgG). FIG. 2A. B12 IgG specificity for human fibroblast activation protein alpha (hFAP) (circle), mouse fibroblast activation protein alpha (mFAP) (square), and the homologous protease human dipeptidyl peptidase IV (hDPP-IV) (triangle) was determined by enzyme-linked immunosorbent assay (ELISA). B12 IgG was serial-diluted from 500 nM to 0.1 nM and added to protein coated wells. B12 IgG binding was detected by a peroxidase conjugated […] monoclonal antibody. FIG. 2B. […] FIG. 2C. B12 IgG binding to membrane-bound FAP was analyzed by flow cytometry. […] Unstained cells (blue line) were used as a negative control. FIG. 2D. mRNA levels of hDPP-IV were investigated by quantitative RT-PCR in prostate (R1-EnzR, R1-EnzR^FAP, PC3) and colon (Caco2) cancer cells. mRNA fold change is normalized to R1-EnzR. **p 0.01. FIG. 2E.
Dilution ELISA: A MaxiSorp plate was coated and blocked as described above. 50 μL of biotinylated human FAP, murine FAP, or human DPP-IV ([…] in PBS, 1% BSA, 0.005% Tween20) was added to 8 sets of triplicate wells each. […] B12 IgG binding was detected with a 1:1000 dilution of anti-human IgG monoclonal antibody conjugated to peroxidase (sc-2769, Santa Cruz Biotechnology, Dallas, Tex.) in PBS, 1% BSA.

[2] = molecular target: T2, human dipeptidyl peptidase IV expressed on cells (PC3 and CaCo2 cells) (human, UniProt P27487 1-766); experiment: flow cytometry, Alexa Fluor 488 conjugated B12 IgG on hDPP-IV-expressing PC3 cells against unstained cells
T2 construct: whole, on cells; also called hDPP-IV-expressing cells; hDPP-IV-positive cell lines
T2 sequence (P27487 whole entry): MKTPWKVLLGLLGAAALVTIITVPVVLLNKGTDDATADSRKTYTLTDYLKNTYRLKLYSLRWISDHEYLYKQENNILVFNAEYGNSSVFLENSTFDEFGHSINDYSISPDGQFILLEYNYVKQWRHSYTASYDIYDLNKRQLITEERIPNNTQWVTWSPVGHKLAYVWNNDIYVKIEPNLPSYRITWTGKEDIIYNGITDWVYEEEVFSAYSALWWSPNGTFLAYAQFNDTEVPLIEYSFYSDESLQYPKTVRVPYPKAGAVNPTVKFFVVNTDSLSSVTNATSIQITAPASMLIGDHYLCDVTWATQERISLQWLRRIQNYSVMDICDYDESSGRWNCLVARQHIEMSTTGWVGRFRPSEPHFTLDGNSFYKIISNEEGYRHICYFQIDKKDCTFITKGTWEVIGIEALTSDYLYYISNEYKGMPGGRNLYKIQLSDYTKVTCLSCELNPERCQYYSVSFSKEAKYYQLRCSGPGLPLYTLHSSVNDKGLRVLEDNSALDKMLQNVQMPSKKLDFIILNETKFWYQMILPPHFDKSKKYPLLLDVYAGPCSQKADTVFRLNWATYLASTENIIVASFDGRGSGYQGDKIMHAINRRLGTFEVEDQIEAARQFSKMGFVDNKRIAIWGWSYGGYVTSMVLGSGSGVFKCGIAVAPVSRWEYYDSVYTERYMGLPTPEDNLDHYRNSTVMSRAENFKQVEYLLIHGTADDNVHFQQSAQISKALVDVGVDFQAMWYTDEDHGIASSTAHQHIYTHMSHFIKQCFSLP

T1 sequence (P27487 29-766 limits assumed): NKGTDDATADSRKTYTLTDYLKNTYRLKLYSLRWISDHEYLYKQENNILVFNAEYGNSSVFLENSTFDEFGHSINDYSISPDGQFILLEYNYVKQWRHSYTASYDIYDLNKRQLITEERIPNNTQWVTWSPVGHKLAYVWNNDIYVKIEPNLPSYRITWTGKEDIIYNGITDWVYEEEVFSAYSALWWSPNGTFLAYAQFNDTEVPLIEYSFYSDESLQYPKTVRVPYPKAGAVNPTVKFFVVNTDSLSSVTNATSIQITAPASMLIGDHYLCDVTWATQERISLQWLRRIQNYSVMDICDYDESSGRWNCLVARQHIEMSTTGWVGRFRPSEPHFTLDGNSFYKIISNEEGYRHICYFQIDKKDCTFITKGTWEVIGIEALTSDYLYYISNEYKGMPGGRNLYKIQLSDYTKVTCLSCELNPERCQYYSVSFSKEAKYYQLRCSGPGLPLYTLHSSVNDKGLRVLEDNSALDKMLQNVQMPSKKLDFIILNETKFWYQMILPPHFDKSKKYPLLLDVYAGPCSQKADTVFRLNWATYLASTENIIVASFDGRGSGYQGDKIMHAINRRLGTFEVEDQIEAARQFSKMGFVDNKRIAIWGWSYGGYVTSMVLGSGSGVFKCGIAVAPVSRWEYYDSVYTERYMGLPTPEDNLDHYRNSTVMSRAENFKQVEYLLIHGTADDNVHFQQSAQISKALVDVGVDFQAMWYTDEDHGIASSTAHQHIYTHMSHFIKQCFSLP

B1: B12 IgG (chimeric anti-FAP monoclonal antibody: murine B12 variable domains in a full-length human IgG) (antibody, V domains shown)
VH: EVMLVESGGGLVQPGGSLKLSCAASGFTFSSYGMSWVRQTPDKRLELVATINSNGGSTYYPDSVKGRFTISRDNAKNTLYLQMSSLKSEDTAMYYCARDYFDYWGQGTTLTVSS
VL: DIVITQSPSSLSASLGERVSLTCRASQEISGYLSWLQQKPDGTIKLIYAASTLDSGVPKRFSGSRSGSDYSLTISSLESEDFADYYCLQYASYPWTFGGGTKLEIKR
notes: They were cloned into pFUSEss human IgG expression vectors (Invivogen) and expressed in HEK293T cells; capture was detected with an anti-human IgG1 secondary and the isotype control is human IgG1; also called anti-FAP mAb; aFAP
[1]
  binding result: no binding (tested: 500 nM)
[2]
  binding result: no binding (tested: 100 nM)
